The target of series [1] is recombinant human OAS1 (2′-5′-oligoadenylate synthetase 1) (human) (UniProt P00973). As to the kind of experiment: AUC; sedimentation velocity, OAS1 at 2.0–3.5 g/L, 20°C, 25,000 rpm, 20 mM Tris pH 7.2, 100 mM NaCl, 1 mM DTT, 10% glycerol; monomer to dimer.
The target is the same in series [2]. As to the kind of experiment: SEC-SAXS; OAS1 loaded at 4.14 g/L (50 μL) on a Shodex KW404 column, Diamond Light Source B21; peak-1 and peak-2 analysed separately; Mw by SAXS MoW.
The next series concerns the target OAS2 (Homo sapiens) (UniProt P29728). Conditions: cited from earlier work.
Series [3] concerns the molecule itself. As to the kind of experiment: SEC-SAXS; OAS2 loaded at 4.00 g/L (50 μL) on a Shodex KW404 column, Diamond Light Source B21; volume-based molecular weight from DAMMIN.

For “recombinant human OAS1 (2′-5′-oligoadenylate synthetase 1) (from UniProt P00973 1-400) (enzyme)”, the stoichiometry N in series [1] and in series [2] was 2 throughout. Take OAS2 (from UniProt P29728): the dissociation constant Kd in the series with OAS2 (Homo sapiens) is 5.1 nM.

B1: FLAG-tagged OAS2 (recombinant human 2′-5′-oligoadenylate synthetase 2, wild type) (enzyme, UniProt P29728-2 1-687, looked up)
chain: MGNGESQLSSVPAQKLGWFIQEYLKPYEECQTLIDEMVNTICDVLQEPEQFPLVQGVAIGGSYGRKTVLRGNSDGTLVLFFSDLKQFQDQKRSQRDILDKTGDKLKFCLFTKWLKNNFEIQKSLDGFTIQVFTKNQRISFEVLAAFNALSLNDNPSPWIYRELKRSLDKTNASPGEFAVCFTELQQKFFDNRPGKLKDLILLIKHWHQQCQKKIKDLPSLSPYALELLTVYAWEQGCRKDNFDIAEGVRTVLELIKCQEKLCIYWMVNYNFEDETIRNILLHQLQSARPVILDPVDPTNNVSGDKICWQWLKKEAQTWLTSPNLDNELPAPSWNVLPAPLFTTPGHLLDKFIKEFLQPNKCFLEQIDSAVNIIRTFLKENCFRQSTAKIQIVRGGSTAKGTALKTGSDADLVVFHNSLKSYTSQKNERHKIVKEIHEQLKAFWREKEEELEVSFEPPKWKAPRVLSFSLKSKVLNESVSFDVLPAFNALGQLSSGSTPSPEVYAGLIDLYKSSDLPGGEFSTCFTVLQRNFIRSRPTKLKDLIRLVKHWYKECERKLKPKGSLPPKYALELLTIYAWEQGSGVPDFDTAEGFRTVLELVTQYQQLCIFWKVNYNFEDETVRKFLLSQLQKTRPVILDPAEPTGDVGGGDRWCWHLLAKEAKEWLSSPCFKDGTGNPIPPWKVPVKVI
notes: human 2′-5′-oligoadenylate synthetase 2 (OAS2); residues D408, D410, D481, C668, F669, K670 are named; The N-terminal position of FLAG is stated only for the CAFAKA mutant; also called FLAG-OAS2; wild-type OAS2; source: HEK293T, transfected (pcDNA3); in lysate for the co-immunoprecipitation
Regarding B1, the “stoichiometry N” value in series [3] was 2.

Values taken from paper PMC7264852, “Structural and Hydrodynamic Characterization of Dimeric Human Oligoadenylate Synthetase 2” (Biophysical Journal, 2020).
